Results as given in publication PMC9300185 (Chembiochem, 2021).

Target: the molecule itself
Test: crystal structure

B1: LecA, galactose-binding lectin of Pseudomonas aeruginosa (natural protein)
chain: AWKGEVLANNEAGQVTSIIYNPGDVITIVAAGWASYGPTQKWGPQGDREHPDQGLICHDAFCGALVMKIGNSGTIPVNTGLFRWVAPNNVQGAITLIYNDVPGTYGNNSGSFSVNIGKDQS
stoichiometry N: 4
